# Laboratory results published in patent publication US20250064909A1 (MEDIMABBIO, published 2025).
# Numbering of substitutions follows the chain as printed.
# T1: TIGIT on cells (human primary T cells, PBMC, NK cells; Promega TIGIT effector cells) (human) (UniProt Q495A1)
# T1 sequence: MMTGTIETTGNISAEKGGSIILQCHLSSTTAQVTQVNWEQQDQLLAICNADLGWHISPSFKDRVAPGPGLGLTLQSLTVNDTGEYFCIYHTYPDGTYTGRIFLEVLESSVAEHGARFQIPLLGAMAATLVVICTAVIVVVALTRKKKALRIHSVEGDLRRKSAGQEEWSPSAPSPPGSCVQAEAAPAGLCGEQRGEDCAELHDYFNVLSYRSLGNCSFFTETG
# T2: recombinant human TIGIT (Sino Biological) (human, UniProt Q495A1 22-138)
# T2 construct: Bought protein; NP_776160.2; also called human TIGIT antigen; hTIGIT
# T2 sequence: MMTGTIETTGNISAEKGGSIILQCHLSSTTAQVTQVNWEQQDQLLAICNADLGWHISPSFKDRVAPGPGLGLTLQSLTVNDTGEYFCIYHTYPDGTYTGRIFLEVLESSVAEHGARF
# T3: recombinant human TIGIT (Acrobiosystems) (human, UniProt Q495A1 22-141)
# T3 construct: Bought protein; also called hTIGIT; human TIGIT antigen
# T3 sequence: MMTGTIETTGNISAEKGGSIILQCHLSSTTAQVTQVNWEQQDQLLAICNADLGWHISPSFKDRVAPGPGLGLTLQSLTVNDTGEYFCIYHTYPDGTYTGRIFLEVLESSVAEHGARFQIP
# B1: TIG1 Arcus (antibody, from another filing, V domains shown)
# VH: DVQLVESGGGLVQPGGSRKLSCAASGFTFSNFGMHWVRQAPEKGLEWVAFISSGSSSIYYADTVKGRFTISRDNPKNTLFLQMTSLRSEDTAMYYCARMRLDYYAMDYWGQGTSVTVSS
# VL: DVQITQSPSYLAASPGETITINCRASKSISKYLAWYQEKPGKTNKLLIYSGSTLQSGIPSRFSGSGSGTDFTLTISSLEPEDFAMYYCQQHNEYPWTFGGGTKLEIK
# B2: 7A6 VH3/Vκ3 humanized antibody (human IgG1, kappa) (antibody, V domains shown)
# VH: QVQLQESGPGLVKPSQTLSLTCTVTGYSITSDYAWNWIRQPPGKGLEWMGYISYSGSARYNPSLKSRVTISRDTSKNQFSLKLSSVTAEDTATYYCARKGYPAYFAYWGQGTLVTVSS
# VL: DIQMTQSPSSLSASVGDRVSITCKASQDVSTAVAWYQQKPGQAPRLLIYSASYRYTGVPDRFSGSGSGTDFTLTISSLQAEDVAVYYCQHHYSTPYTFGQGTKLEIKR
# notes: Tested as IgG in supernatant of transiently transfected HEK293 EBNA cells
# B3: 7A6 VH3/Vκ4 humanized antibody (human IgG1, kappa) (antibody, V domains shown)
# VH: B2 VH
# VL: B2 VL with S20T, K24R
# notes: as for B2
# B4: 7A6 VH1/Vκ3 humanized antibody (human IgG1, kappa) (antibody, V domains shown)
# VH: B2 VH with Q1D, V68I, K76M, S84N
# VL: B2 VL
# notes: as for B2
# B5: 7A6 VH5/Vκ3 humanized antibody (human IgG1, kappa) (antibody, V domains shown)
# VH: B2 VH with R72V, E89A, T93V
# VL: B2 VL
# notes: as for B2
# B6: 7A6 VH4/Vκ3 humanized antibody (human IgG1, kappa) (antibody, V domains shown)
# VH: B2 VH with E89A, T93V
# VL: B2 VL
# notes: as for B2
# B7: 7A6 VH1/Vκ5 humanized antibody (human IgG1, kappa) (antibody, V domains shown)
# VH: B2 VH with Q1D, V68I, K76M, S84N
# VL: B2 VL with A80P, V83F, V85T
# notes: as for B2
# B8: 7A6 VH3/Vκ2 humanized antibody (human IgG1, kappa) (antibody, V domains shown)
# VH: B2 VH
# VL: B2 VL with Q3V, S63T
# notes: as for B2
# B9: 7A6 VH1/Vκ1 humanized antibody (human IgG1, kappa) (antibody, V domains shown)
# VH: B2 VH with Q1D, V68I, K76M, S84N
# VL: B2 VL with Q3V, P8H, S10F, R45E, S63T, I106M
# notes: as for B2
# B10: 7A6 VH1/Vκ4 humanized antibody (human IgG1, kappa) (antibody, V domains shown)
# VH: B2 VH with Q1D, V68I, K76M, S84N
# VL: B2 VL with S20T, K24R
# notes: as for B2
# B11: 7A6 VH5/Vκ1 humanized antibody (human IgG1, kappa) (antibody, V domains shown)
# VH: B2 VH with R72V, E89A, T93V
# VL: B2 VL with Q3V, P8H, S10F, R45E, S63T, I106M
# notes: as for B2
# B12: 7A6 VH3/Vκ1 humanized antibody (human IgG1, kappa) (antibody, V domains shown)
# VH: B2 VH
# VL: B2 VL with Q3V, P8H, S10F, R45E, S63T, I106M
# notes: as for B2
# B13: 7A6 VH4/Vκ2 humanized antibody (human IgG1, kappa) (antibody, V domains shown)
# VH: B2 VH with E89A, T93V
# VL: B2 VL with Q3V, S63T
# notes: as for B2
# B14: 7A6 VH4/Vκ5 humanized antibody (human IgG1, kappa) (antibody, V domains shown)
# VH: B2 VH with E89A, T93V
# VL: B2 VL with A80P, V83F, V85T
# notes: as for B2
# B15: 7A6 VH2/Vκ3 humanized antibody (human IgG1, kappa) (antibody, V domains shown)
# VH: B2 VH with Q1D, V68I
# VL: B2 VL
# notes: as for B2
# B16: 7A6 VH4/Vκ4 humanized antibody (human IgG1, kappa) (antibody, V domains shown)
# VH: B2 VH with E89A, T93V
# VL: B2 VL with S20T, K24R
# notes: also called 7A6 VH4/Vk4; 7A6VH4/Vk4
# B17: 7A6 VH2/Vκ1 humanized antibody (human IgG1, kappa) (antibody, V domains shown)
# VH: B2 VH with Q1D, V68I
# VL: B2 VL with Q3V, P8H, S10F, R45E, S63T, I106M
# notes: as for B2
# B18: 7A6 VH2/Vκ5 humanized antibody (human IgG1, kappa) (antibody, V domains shown)
# VH: B2 VH with Q1D, V68I
# VL: B2 VL with A80P, V83F, V85T
# notes: as for B2
# B19: 7A6 VH1/Vκ2 humanized antibody (human IgG1, kappa) (antibody, V domains shown)
# VH: B2 VH with Q1D, V68I, K76M, S84N
# VL: B2 VL with Q3V, S63T
# notes: as for B2
# B20: 7A6 VH2/Vκ4 humanized antibody (human IgG1, kappa) (antibody, V domains shown)
# VH: B2 VH with Q1D, V68I
# VL: B2 VL with S20T, K24R
# notes: as for B2
# B21: 7A6 VH5/Vκ2 humanized antibody (human IgG1, kappa) (antibody, V domains shown)
# VH: B2 VH with R72V, E89A, T93V
# VL: B2 VL with Q3V, S63T
# notes: as for B2
# B22: 7A6 VH4/Vκ1 humanized antibody (human IgG1, kappa) (antibody, V domains shown)
# VH: B2 VH with E89A, T93V
# VL: B2 VL with Q3V, P8H, S10F, R45E, S63T, I106M
# notes: as for B2
# B23: 7A6 VH2/Vκ2 humanized antibody (human IgG1, kappa) (antibody, V domains shown)
# VH: B2 VH with Q1D, V68I
# VL: B2 VL with Q3V, S63T
# notes: as for B2
# B24: 7A6 VH5/Vκ4 humanized antibody (human IgG1, kappa) (antibody, V domains shown)
# VH: B2 VH with R72V, E89A, T93V
# VL: B2 VL with S20T, K24R
# notes: as for B2
# B25: 7A6 VH5/Vκ5 humanized antibody (human IgG1, kappa) (antibody, V domains shown)
# VH: B2 VH with R72V, E89A, T93V
# VL: B2 VL with A80P, V83F, V85T
# notes: as for B2
# B26: 7A6 VH0/Vκ0 chimeric antibody (human IgG1, kappa) (antibody, V domains shown)
# VH: DVQLQESGPGLVKPSQSLSLTCTVTGYSITSDYAWNWIRQFPGNKLEWMGYISYSGSARYNPSLKSRISITRDTSMNQFFLQLNSVTAEDTATYYCARKGYPAYFAYWGQGTLVTVSS
# VL: DIVMTQSHKFMSTSVGDRVSISCKASQDVSTAVAWYQQKPGQSPELLIYSASYRYTGVPDRFTGSGSGTDFTFTISSVQAEDLAVYYCQHHYSTPYTFGGGTKLEMKR
# notes: Mouse 7A6 variable regions on human IgG1/kappa constant regions; also called VH0/Vk0; 7A6 VH0Vk0
# Target: T1, TIGIT on cells (human primary T cells, PBMC, NK cells; Promega TIGIT effector cells) (human)
# Experiment: not given
row,Molecule,"EC50, NFAT reporter luminescence (TIGIT effector cells + CD155 aAPC/CHO-K1 cells; blocked ligand PVR/CD155) [µg/mL]"
1,MBSA43 control (antibody),1.24
2,B1,3.74

# Target: T1, TIGIT on cells (human primary T cells, PBMC, NK cells; Promega TIGIT effector cells) (human)
# Experiment: not given
# Remark: another data set of the same source
row,Molecule,"EC50 of the mixture with pembrolizumab (both antibodies at the same concentration), NFAT reporter luminescence (PD-1+TIGIT+ effector cells + PD-L1+CD155 aAPC/CHO-K1 cells) [µg/mL]"
1,B1,0.611

# Target: T1, TIGIT on cells (human primary T cells, PBMC, NK cells; Promega TIGIT effector cells) (human)
# Experiment: not given
# Remark: another data set of the same source
row,Molecule,"EC50 of the mixture with nivolumab (both antibodies at the same concentration), NFAT reporter luminescence (PD-1+TIGIT+ effector cells + PD-L1+CD155 aAPC/CHO-K1 cells) [µg/mL]"
1,B1,0.923

# Target: T2, recombinant human TIGIT (Sino …)
# Experiment: SPR single cycle kinetics; KD divided by KD of the VH0/Vκ0 chimeric antibody;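 further: biacore T200 SPR at 25 °C, IgG captured on anti-human chip, TIGIT analyte in four rising concentrations, 210 s association each, 900 s dissociation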
# Method: (§1) The kinetic test was conducted at 25° C. using the Biacore T200 running Biacore T200 Control software V2.0.1 and Evaluation software V3.0 (GE Healthcare, Uppsala, Sweden).
# (§2) To reduce non-specific binding to the reference surface, HBS-P+ (GE Healthcare, Uppsala, Sweden) supplemented with 1% BSA w/v (Sigma, Dorset, UK) was used as the running buffer and was also used for dilution of ligand and analyte. The supernatant containing IgG was diluted in the running buffer to 1 μg/mL. At the beginning of each cycle, the antibody was loaded onto Fc2, Fc3, and Fc4 on the anti-human sensor chip (GE Healthcare, Little Chalfont, UK). […] Then, the surface was allowed to stabilize.
# (§3) To minimize potential mass transfer effects, recombinant human TIGIT (from Sino Biological) was used as the analyte and injected at a flow rate of 40 μl/min to obtain Single cycle kinetic data. […] For each of the four increasing antigen concentrations, the association phases were monitored for 210 seconds, and after the last antigen injection, a single dissociation phase was measured for 900 seconds. The sensor chip surface was regenerated by a single injection of 3 M MgCl₂.
row,Molecule,Relative KD
1,B2,1.38
2,B3,1.84
3,B4,1.48
4,B5,2.32
5,B6,1.45
6,B7,1.1
7,B8,1.48
8,B9,0.85
9,B10,1.34
10,B11,1.32
11,B12,1.1
12,B13,1.63
13,B14,1.41
14,B15,1.38
15,B16,1.98
16,B17,1.1
17,B18,1.16
18,B19,1.24
19,B20,1.58
20,B21,2.55
21,B22,0.94
22,B23,1.47
23,B24,2.33
24,B25,1.92
25,B26,1

# Target: T3, recombinant human TIGIT (Acrobiosystems)
# Experiment: SPR (Biacore T200), multi-cycle kinetics, purified IgG captured on anti-human IgG CM5 chip, TIGIT as analyte, 1:1 fit
# Method: Kinetic experiments were performed at 25° C. using a Biacore T200 operated with Control software V2.0.1 and Evaluation software V3.0 (GE Healthcare, Uppsala, Sweden).
# HBS-P+ (GE Healthcare, Uppsala, Sweden) supplemented with 1% BSA w/v (Sigma, Dorset, UK) was used as the running buffer and was also used for dilution of ligands and analytes. The purified leading antibodies were diluted in the running buffer to a final concentration of 1 μg/mL, and at the initiation of each cycle, were loaded onto Fc2, Fc3, and Fc4 sites on the anti-human IgG CM5 sensor chip (GE Healthcare, Little Chalfont, UK). The antibodies were captured at a flow rate of 10 μl/min until a response level (RL) of ˜150 RU was achieved, followed by a stabilization period.
# To minimize potential mass transfer effects, recombinant human TIGIT (Acrobiosystems, China) was introduced as the analyte at a flow rate of 50 μl/min to obtain multi-cycle kinetic data. […] For each concentration, association phases were monitored for 240 seconds, followed by 900 seconds of monitoring the dissociation phase. The sensor chip surface was regenerated between kinetic cycles by injecting 3M MgCl₂ twice. To ensure the stability of both the surface and the analyte across kinetic cycles, repetitive injections of blank and a single concentration of the analyte were programmed into the kinetic run.
Molecule,Kd [pM],koff [s⁻¹],kon [M⁻¹ s⁻¹]
B26,77,0.000176,2.28e+06

# Target: T2, recombinant human TIGIT (Sino …)
# Experiment: SPR (Biacore T200), single cycle kinetics, IgG from supernatant captured on anti-human chip, TIGIT as analyte, 1:1 fit;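 further: measured at 25 °C in HBS-P+ with 1% BSA, four ascending TIGIT concentrations, 210 s association per step, one final 900 s dissociation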
# Method: as §1, §2, §3
Molecule,Kd [pM],koff [s⁻¹],kon [M⁻¹ s⁻¹]
B2,903,0.0015,1.66e+06
B3,1200,0.00196,1.63e+06
B4,963,0.00182,1.89e+06
B5,1510,0.00189,1.25e+06
B6,944,0.00175,1.85e+06
B7,717,0.00129,1.8e+06
B8,963,0.00173,1.8e+06
B9,554,0.00129,2.33e+06
B10,876,0.00167,1.91e+06
B11,858,0.00124,1.45e+06
B12,715,0.00155,2.17e+06
B13,1060,0.00185,1.75e+06
B14,922,0.00162,1.76e+06
B15,897,0.00134,1.49e+06
B16,1290,0.00192,1.49e+06
B17,715,0.00168,2.36e+06
B18,754,0.0013,1.72e+06
B19,811,0.00146,1.8e+06
B20,1030,0.00181,1.75e+06
B21,1660,0.00204,1.23e+06
B22,616,0.00107,1.73e+06
B23,961,0.00158,1.65e+06
B24,1520,0.00181,1.19e+06
B25,1250,0.0017,1.36e+06
B26,652,0.0016,2.46e+06
